This passage reports stoichiometry N results from article PMC4650709.

In general, stoichiometry N refers to the number of molecules, sites or subunits per partner or assembly.

This experiment addresses Ara h 1 (peanut). The experiment in a line: SEC; purified Ara h 1; conditions not given. A general note: SEC sorts molecules by how far they enter the pores of the column.

For the substance Ara h 1 (natural protein), the stoichiometry N was determined as 3.
